Data: paper PMC7337490

Target: survivin;borealin 10-109;INCENP 1-80 (CPI80) (human;human;human) (UniProt O15392+Q53HL2+Q9NQS7)
Test: EMSA
Settings: shift between 2 and 3 uM protein; 100 mM NaCl, 20 mM Tris-HCl pH 7.4, 1 mM DTT, 2 h on ice; MST 0.04 uM duplex, 0.1-200 uM protein; EMSA 0.15 pmol plasmid in 20 ul, 0.8% agarose

survivin;borealin 10-109;INCENP 1-80 (CPI80) (human;human;human), sequence (O15392 whole entry, chain 1 of 3): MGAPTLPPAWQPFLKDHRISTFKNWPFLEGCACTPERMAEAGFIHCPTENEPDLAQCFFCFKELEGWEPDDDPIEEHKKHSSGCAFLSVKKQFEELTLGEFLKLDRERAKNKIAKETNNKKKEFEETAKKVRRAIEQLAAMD
survivin;borealin 10-109;INCENP 1-80 (CPI80) (human;human;human), sequence (Q53HL2 10-109, chain 2 of 3): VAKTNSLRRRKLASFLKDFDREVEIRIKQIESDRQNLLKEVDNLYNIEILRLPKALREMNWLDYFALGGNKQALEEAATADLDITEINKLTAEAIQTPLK
survivin;borealin 10-109;INCENP 1-80 (CPI80) (human;human;human), sequence (Q9NQS7 1-80, chain 3 of 3): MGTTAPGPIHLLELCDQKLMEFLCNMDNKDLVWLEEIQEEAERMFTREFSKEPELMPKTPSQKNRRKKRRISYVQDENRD

Substance: BamHI-linearized pBluescript (2.9 kb)
- K half: 3000 nM
